B1: Pistol ribozyme (parent)
chain: GGGUCGUUGUUCCAUAAUCGCGUGGAUAUGGCACGCAAGUUUCUACCGGGCACCGUAAAUGUCCGACUGGAGCCGUUCGGGCGGCUAUAAACAGACCUCAGGCCCGAAGCGUGGCGGCACCUGCCGCCGGUGGUAAAAAAGAUCGGAAGAGCACACGUCU

Variants of: B1
Experiment: aptazyme ON/OFF ratio, guanine; higher = stronger switching; co-transcriptional cleavage with and without guanine

Variant	aptazyme ON/OFF ratio
GGGUCGAGUCAGAAUAAUCGCGUGGAUAUGGCACGCAAGUUUCUACCGGGCACCGUAAAUGUCCGACUGGAGCCGUUCGGGCGGCUAUAAACAGACCUCAGGCCCGAAGCGUGGCGGCACCUGCCGCCGGUGGUAAAAAAGAUCGGAAGAGCACACGUCU	1.27
GGGUCGAGUCAGGAUAAUCGCGUGGAUAUGGCACGCAAGUUUCUACCGGGCACCGUAAAUGUCCGACUGGAGCCGUUCGGGCGGCUAUAAACAGACCUCAGGCCCGAAGCGUGGCGGCACCUGCCGCCGGUGGUAAAAAAGAUCGGAAGAGCACACGUCU	1.28
GGGUCGAGUCAGUAUAAUCGCGUGGAUAUGGCACGCAAGUUUCUACCGGGCACCGUAAAUGUCCGACUGGAGCCGUUCGGGCGGCUAUAAACAGACCUCAGGCCCGAAGCGUGGCGGCACCUGCCGCCGGUGGUAAAAAAGAUCGGAAGAGCACACGUCU	1.37
GGGUCGAGUCUAGAUAAUCGCGUGGAUAUGGCACGCAAGUUUCUACCGGGCACCGUAAAUGUCCGACUGGAGCCGUUCGGGCGGCUAUAAACAGACCUCAGGCCCGAAGCGUGGCGGCACCUGCCGCCGGUGGUAAAAAAGAUCGGAAGAGCACACGUCU	1.01
GGGUCGAGUCUAUAUAAUCGCGUGGAUAUGGCACGCAAGUUUCUACCGGGCACCGUAAAUGUCCGACUGGAGCCGUUCGGGCGGCUAUAAACAGACCUCAGGCCCGAAGCGUGGCGGCACCUGCCGCCGGUGGUAAAAAAGAUCGGAAGAGCACACGUCU	1.35
GGGUCGAGUCCAAAUAAUCGCGUGGAUAUGGCACGCAAGUUUCUACCGGGCACCGUAAAUGUCCGACUGGAGCCGUUCGGGCGGCUAUAAACAGACCUCAGGCCCGAAGCGUGGCGGCACCUGCCGCCGGUGGUAAAAAAGAUCGGAAGAGCACACGUCU	1.21
GGGUCGAGUCCAGAUAAUCGCGUGGAUAUGGCACGCAAGUUUCUACCGGGCACCGUAAAUGUCCGACUGGAGCCGUUCGGGCGGCUAUAAACAGACCUCAGGCCCGAAGCGUGGCGGCACCUGCCGCCGGUGGUAAAAAAGAUCGGAAGAGCACACGUCU	1.32
GGGUCGAGUCCAUAUAAUCGCGUGGAUAUGGCACGCAAGUUUCUACCGGGCACCGUAAAUGUCCGACUGGAGCCGUUCGGGCGGCUAUAAACAGACCUCAGGCCCGAAGCGUGGCGGCACCUGCCGCCGGUGGUAAAAAAGAUCGGAAGAGCACACGUCU	1.2
GGGUCGAGUCCGCAUAAUCGCGUGGAUAUGGCACGCAAGUUUCUACCGGGCACCGUAAAUGUCCGACUGGAGCCGUUCGGGCGGCUAUAAACAGACCUCAGGCCCGAAGCGUGGCGGCACCUGCCGCCGGUGGUAAAAAAGAUCGGAAGAGCACACGUCU	1.37
GGGUCGAGUCCACAUAAUCGCGUGGAUAUGGCACGCAAGUUUCUACCGGGCACCGUAAAUGUCCGACUGGAGCCGUUCGGGCGGCUAUAAACAGACCUCAGGCCCGAAGCGUGGCGGCACCUGCCGCCGGUGGUAAAAAAGAUCGGAAGAGCACACGUCU	1.3
GGGUCGAGUCACAAUAAUCGCGUGGAUAUGGCACGCAAGUUUCUACCGGGCACCGUAAAUGUCCGACUGGAGCCGUUCGGGCGGCUAUAAACAGACCUCAGGCCCGAAGCGUGGCGGCACCUGCCGCCGGUGGUAAAAAAGAUCGGAAGAGCACACGUCU	1.44
GGGUCGAGUCACGAUAAUCGCGUGGAUAUGGCACGCAAGUUUCUACCGGGCACCGUAAAUGUCCGACUGGAGCCGUUCGGGCGGCUAUAAACAGACCUCAGGCCCGAAGCGUGGCGGCACCUGCCGCCGGUGGUAAAAAAGAUCGGAAGAGCACACGUCU	1.33
GGGUCGAGUCACUAUAAUCGCGUGGAUAUGGCACGCAAGUUUCUACCGGGCACCGUAAAUGUCCGACUGGAGCCGUUCGGGCGGCUAUAAACAGACCUCAGGCCCGAAGCGUGGCGGCACCUGCCGCCGGUGGUAAAAAAGAUCGGAAGAGCACACGUCU	1.33
GGGUCGAGUCUUGAUAAUCGCGUGGAUAUGGCACGCAAGUUUCUACCGGGCACCGUAAAUGUCCGACUGGAGCCGUUCGGGCGGCUAUAAACAGACCUCAGGCCCGAAGCGUGGCGGCACCUGCCGCCGGUGGUAAAAAAGAUCGGAAGAGCACACGUCU	1.54
GGGUCGAGUCUUAAUAAUCGCGUGGAUAUGGCACGCAAGUUUCUACCGGGCACCGUAAAUGUCCGACUGGAGCCGUUCGGGCGGCUAUAAACAGACCUCAGGCCCGAAGCGUGGCGGCACCUGCCGCCGGUGGUAAAAAAGAUCGGAAGAGCACACGUCU	1.34
GGGUCGAGUCUUUAUAAUCGCGUGGAUAUGGCACGCAAGUUUCUACCGGGCACCGUAAAUGUCCGACUGGAGCCGUUCGGGCGGCUAUAAACAGACCUCAGGCCCGAAGCGUGGCGGCACCUGCCGCCGGUGGUAAAAAAGAUCGGAAGAGCACACGUCU	1.31
GGGUCGAGUCAAAAUAAUCGCGUGGAUAUGGCACGCAAGUUUCUACCGGGCACCGUAAAUGUCCGACUGGAGCCGUUCGGGCGGCUAUAAACAGACCUCAGGCCCGAAGCGUGGCGGCACCUGCCGCCGGUGGUAAAAAAGAUCGGAAGAGCACACGUCU	1.26
GGGUCGAGUCAAGAUAAUCGCGUGGAUAUGGCACGCAAGUUUCUACCGGGCACCGUAAAUGUCCGACUGGAGCCGUUCGGGCGGCUAUAAACAGACCUCAGGCCCGAAGCGUGGCGGCACCUGCCGCCGGUGGUAAAAAAGAUCGGAAGAGCACACGUCU	1.37

Variant	aptazyme ON/OFF ratio
GGGUCGAGUCAAUAUAAUCGCGUGGAUAUGGCACGCAAGUUUCUACCGGGCACCGUAAAUGUCCGACUGGAGCCGUUCGGGCGGCUAUAAACAGACCUCAGGCCCGAAGCGUGGCGGCACCUGCCGCCGGUGGUAAAAAAGAUCGGAAGAGCACACGUCU	1.47
GGGUCGAGUCCCCAUAAUCGCGUGGAUAUGGCACGCAAGUUUCUACCGGGCACCGUAAAUGUCCGACUGGAGCCGUUCGGGCGGCUAUAAACAGACCUCAGGCCCGAAGCGUGGCGGCACCUGCCGCCGGUGGUAAAAAAGAUCGGAAGAGCACACGUCU	1.15
GGGUCGAGUCACCAUAAUCGCGUGGAUAUGGCACGCAAGUUUCUACCGGGCACCGUAAAUGUCCGACUGGAGCCGUUCGGGCGGCUAUAAACAGACCUCAGGCCCGAAGCGUGGCGGCACCUGCCGCCGGUGGUAAAAAAGAUCGGAAGAGCACACGUCU	3.38
GGGUCGAGUCAGCAUAAUCGCGUGGAUAUGGCACGCAAGUUUCUACCGGGCACCGUAAAUGUCCGACUGGAGCCGUUCGGGCGGCUAUAAACAGACCUCAGGCCCGAAGCGUGGCGGCACCUGCCGCCGGUGGUAAAAAAGAUCGGAAGAGCACACGUCU	1.61
GGGUCGAGUCAACAUAAUCGCGUGGAUAUGGCACGCAAGUUUCUACCGGGCACCGUAAAUGUCCGACUGGAGCCGUUCGGGCGGCUAUAAACAGACCUCAGGCCCGAAGCGUGGCGGCACCUGCCGCCGGUGGUAAAAAAGAUCGGAAGAGCACACGUCU	1.63
GGGUCGAGUCAUCAUAAUCGCGUGGAUAUGGCACGCAAGUUUCUACCGGGCACCGUAAAUGUCCGACUGGAGCCGUUCGGGCGGCUAUAAACAGACCUCAGGCCCGAAGCGUGGCGGCACCUGCCGCCGGUGGUAAAAAAGAUCGGAAGAGCACACGUCU	1.72
GGGUCGAGUCCGAAUAAUCGCGUGGAUAUGGCACGCAAGUUUCUACCGGGCACCGUAAAUGUCCGACUGGAGCCGUUCGGGCGGCUAUAAACAGACCUCAGGCCCGAAGCGUGGCGGCACCUGCCGCCGGUGGUAAAAAAGAUCGGAAGAGCACACGUCU	1.2
GGGUCGAGUCUGGAUAAUCGCGUGGAUAUGGCACGCAAGUUUCUACCGGGCACCGUAAAUGUCCGACUGGAGCCGUUCGGGCGGCUAUAAACAGACCUCAGGCCCGAAGCGUGGCGGCACCUGCCGCCGGUGGUAAAAAAGAUCGGAAGAGCACACGUCU	1.16
GGGUCGAGUCUGAAUAAUCGCGUGGAUAUGGCACGCAAGUUUCUACCGGGCACCGUAAAUGUCCGACUGGAGCCGUUCGGGCGGCUAUAAACAGACCUCAGGCCCGAAGCGUGGCGGCACCUGCCGCCGGUGGUAAAAAAGAUCGGAAGAGCACACGUCU	1.39
GGGUCGAGUCUGUAUAAUCGCGUGGAUAUGGCACGCAAGUUUCUACCGGGCACCGUAAAUGUCCGACUGGAGCCGUUCGGGCGGCUAUAAACAGACCUCAGGCCCGAAGCGUGGCGGCACCUGCCGCCGGUGGUAAAAAAGAUCGGAAGAGCACACGUCU	1.68
GGGUCGAGUCAUUAUAAUCGCGUGGAUAUGGCACGCAAGUUUCUACCGGGCACCGUAAAUGUCCGACUGGAGCCGUUCGGGCGGCUAUAAACAGACCUCAGGCCCGAAGCGUGGCGGCACCUGCCGCCGGUGGUAAAAAAGAUCGGAAGAGCACACGUCU	1.36
GGGUCGAGUCAUAAUAAUCGCGUGGAUAUGGCACGCAAGUUUCUACCGGGCACCGUAAAUGUCCGACUGGAGCCGUUCGGGCGGCUAUAAACAGACCUCAGGCCCGAAGCGUGGCGGCACCUGCCGCCGGUGGUAAAAAAGAUCGGAAGAGCACACGUCU	1.41
GGGUCGAGUCAUGAUAAUCGCGUGGAUAUGGCACGCAAGUUUCUACCGGGCACCGUAAAUGUCCGACUGGAGCCGUUCGGGCGGCUAUAAACAGACCUCAGGCCCGAAGCGUGGCGGCACCUGCCGCCGGUGGUAAAAAAGAUCGGAAGAGCACACGUCU	1.32
GGGUCGAGUCUCGAUAAUCGCGUGGAUAUGGCACGCAAGUUUCUACCGGGCACCGUAAAUGUCCGACUGGAGCCGUUCGGGCGGCUAUAAACAGACCUCAGGCCCGAAGCGUGGCGGCACCUGCCGCCGGUGGUAAAAAAGAUCGGAAGAGCACACGUCU	1.21
GGGUCGAGUCUCAAUAAUCGCGUGGAUAUGGCACGCAAGUUUCUACCGGGCACCGUAAAUGUCCGACUGGAGCCGUUCGGGCGGCUAUAAACAGACCUCAGGCCCGAAGCGUGGCGGCACCUGCCGCCGGUGGUAAAAAAGAUCGGAAGAGCACACGUCU	1.33
GGGUCGAGUCUCUAUAAUCGCGUGGAUAUGGCACGCAAGUUUCUACCGGGCACCGUAAAUGUCCGACUGGAGCCGUUCGGGCGGCUAUAAACAGACCUCAGGCCCGAAGCGUGGCGGCACCUGCCGCCGGUGGUAAAAAAGAUCGGAAGAGCACACGUCU	1.57
GGGUCGAGUCUUCAUAAUCGCGUGGAUAUGGCACGCAAGUUUCUACCGGGCACCGUAAAUGUCCGACUGGAGCCGUUCGGGCGGCUAUAAACAGACCUCAGGCCCGAAGCGUGGCGGCACCUGCCGCCGGUGGUAAAAAAGAUCGGAAGAGCACACGUCU	1.66
GGGUCGAGUCUGCAUAAUCGCGUGGAUAUGGCACGCAAGUUUCUACCGGGCACCGUAAAUGUCCGACUGGAGCCGUUCGGGCGGCUAUAAACAGACCUCAGGCCCGAAGCGUGGCGGCACCUGCCGCCGGUGGUAAAAAAGAUCGGAAGAGCACACGUCU	1.24
